Reference: the supplement of paper PMC7877785
± gives the uncertainty stated by the source.

Test: self-splicing fitness, log relative to wild type (ln ratio); higher = more splicing; Tetrahymena group I intron in knt gene, E. coli kanamycin selection, DiMSum; sequences stand for … in CUCUCU…GGAGGGAAAAGUUAUCAGGCAUGCACCUGGUAGCUAGUCUUUAAACCAAUAGAUUGCAUCGGUUUAAAAGGCAAGACCGUCAAAUUGCGGGAAAGGGGUCAACAGCCGUUCAGUACCAAGUCUCAGGGGAAACUUUGAGAUGGCCUUGCAAAGGGUAUGGUAAUAAGCUGACGGACAUGGUCCUAACCACGCAGCCAAGUCCUAAGUCAACAGAUCUUCUGUUGAUAUGGAUGCAGUUCACAGACUAAAUGUCGGUCGGGGAAGAUGUAUUCUUCUCAUAAGAUAUAGUCGGACCUCUCCUUAAUGGGAGCUAGCGGAUGAAGUGAUGCAACACUGGAGCCGCUGGGAACUAAUUUGUAUGCGAAAGUAUAUUGAUUAGUUUUGGAGUACUCGUGGUCG
In short: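 Library with all eight P1ex-region intron nucleotides randomised, intron inside the knt kanamycin-resistance gene on pET-22b(+), in E. coli BL21(DE3). Cells grew overnight at 37°C or 30°C on LB agar with or without 25 μg/mL kanamycin (plus 100 μg/mL carbenicillin, 50 μM IPTG, 0.2% rhamnose), in six replicate transformations. Pooled colonies were amplicon-sequenced on Illumina HiSeq 2500. DiMSum fitness is the error-weighted combination of wild-type-normalised replicate fold changes, kanamycin versus none.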

Sequence	self-splicing fitness (ln) (30 °C)	self-splicing fitness (ln) (37 °C)
UGUAAGCAAUAUUACGUGAA	-1.8 ± 0.16	0.0061 ± 0.14
AAGUAGCAAUAUUACGGGCA	-1.25 ± 0.088	-0.149 ± 0.098
CGGAAGCAAUAUUACGCUCG	-3.42 ± 0.21	-1.97 ± 0.23
AAGUAGCAAUAUUACGGCGG	-2.56 ± 0.17	-0.842 ± 0.15
AACCAGCAAUAUUACGGACA	-0.462 ± 0.077	-0.0476 ± 0.095
GUCGAGCAAUAUUACGCAAA	-2.51 ± 0.39	
GGCCAGCAAUAUUACGGGUU	-3.08 ± 0.17	-2.06 ± 0.19
GACAAGCAAUAUUACGCGGA	-2.24 ± 0.16	-1.25 ± 0.13
AUCAAGCAAUAUUACGACGC	-0.837 ± 0.099	-0.402 ± 0.12
AAGCAGCAAUAUUACGGCUA	-0.14 ± 0.066	0.0975 ± 0.086
AGGUAGCAAUAUUACGCUCG	-0.57 ± 0.017	-0.241 ± 0.036
UGUUAGCAAUAUUACGCGCC	-1.13 ± 0.14	-0.207 ± 0.24
AUGAAGCAAUAUUACGCCAG	-0.726 ± 0.13	0.273 ± 0.18
CUAAAGCAAUAUUACGUACC		-2.03 ± 0.46
GAACAGCAAUAUUACGCGCC	-0.957 ± 0.13	-0.851 ± 0.15
CUAGAGCAAUAUUACGGCAA	-3.09 ± 0.22	-2.96 ± 0.34
AAUGAGCAAUAUUACGACAU	-1.33 ± 0.014	-0.714 ± 0.033
UCUGAGCAAUAUUACGUGCG	-3 ± 0.1	-1.34 ± 0.09
UAAGAGCAAUAUUACGGGCU		-2.53 ± 0.32
CUAGAGCAAUAUUACGCGUA	-3.78 ± 0.2	-2.97 ± 0.26
AGCGAGCAAUAUUACGCAGU	-4.48 ± 0.28	-2.78 ± 0.25
AAAAAGCAAUAUUACGGCUU	-0.00557 ± 0.049	0.259 ± 0.066
UUCUAGCAAUAUUACGUGUC	-3.35 ± 0.19	-3.01 ± 0.21
CGGAAGCAAUAUUACGGGGA	-3.79 ± 0.26	-2.65 ± 0.31
UCAAAGCAAUAUUACGGUGU	-2.8 ± 0.11	-1.31 ± 0.099

Sequence	self-splicing fitness (ln) (30 °C)	self-splicing fitness (ln) (37 °C)
GGAAAGCAAUAUUACGAAGA	-2.45 ± 0.3	-1.57 ± 0.21
ACUUAGCAAUAUUACGGGGC	-3.2 ± 0.18	-2.55 ± 0.23
GGUGAGCAAUAUUACGGGUA	-2.58 ± 0.31	-1.64 ± 0.38
CUCUAGCAAUAUUACGCUUC	-2.62 ± 0.27	-2.39 ± 0.34
UGGAAGCAAUAUUACGGGGA	-2.19 ± 0.15	-2.16 ± 0.16
CUUUAGCAAUAUUACGGGCU		-1.66 ± 0.41
GAUCAGCAAUAUUACGGUCC	-3.7 ± 0.33	
CGCUAGCAAUAUUACGUCCU	-1.59 ± 0.15	-1.45 ± 0.17
AAGCAGCAAUAUUACGAAUG	-3.74 ± 0.18	-2.45 ± 0.16
GUCCAGCAAUAUUACGUUAA	-1.64 ± 0.1	-0.751 ± 0.079
CGAAAGCAAUAUUACGACUC	-2.84 ± 0.14	-1.63 ± 0.14
CUAGAGCAAUAUUACGGGGC	-3.9 ± 0.33	-2.31 ± 0.3
CUGUAGCAAUAUUACGAUAC	-2.43 ± 0.29	
GGGAAGCAAUAUUACGCGGA	-2.82 ± 0.23	-1.44 ± 0.18
AAUGAGCAAUAUUACGACAG	-3.71 ± 0.29	-1.85 ± 0.26
AGGUAGCAAUAUUACGUUAU	-3.603 ± 0.026	-2.75 ± 0.039
CGCAAGCAAUAUUACGGGCU	-1.68 ± 0.12	-0.144 ± 0.16
UAGUAGCAAUAUUACGAGCG	-0.586 ± 0.095	0.438 ± 0.12
UCCUAGCAAUAUUACGAUAC	-3.42 ± 0.35	-2.41 ± 0.44
CCCUAGCAAUAUUACGUUGA	-3.23 ± 0.19	-2.83 ± 0.23
UACUAGCAAUAUUACGUAUG	-3.59 ± 0.26	-1.8 ± 0.23
GUCGAGCAAUAUUACGUGAC	-4.99 ± 0.45	-2.57 ± 0.35
CCCUAGCAAUAUUACGCAGC	-3 ± 0.17	-3.24 ± 0.35
GAGGAGCAAUAUUACGUUCG	-1.89 ± 0.2	-1.27 ± 0.23
